In assay [1] the target is T1, VEGF-121-His (inhouse production) (human, UniProt P15692 207-395).
T1 construct: His-tagged human VEGF-A121 used in the ELISAs and (captured by an anti-His antibody) in SPR; also called hVEGF-A121; his VEGF; not shown: His tag
T1 sequence: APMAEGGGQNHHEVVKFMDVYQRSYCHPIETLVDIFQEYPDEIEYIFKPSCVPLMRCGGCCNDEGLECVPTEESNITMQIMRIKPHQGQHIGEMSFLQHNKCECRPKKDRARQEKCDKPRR
Description: SPR (Biacore), hVEGF-A121 captured by anti-His antibody, Fab injected, 25° C. The method, then: (§1) The surface was regenerated by injecting 10 mM Glycine pH 1.5 for 60s. […] Rate constants were calculated using the Langmuir 1:1 binding model within the Biacore® Evaluation software.
(§2) The affinity of the antibodies was determined by SPR using the same methods as described in Example 2. All Fab fragments of antibodies of the invention as listed in table 1 and table 5 were tested.
(Surface plasmon resonance follows binding to a sensor surface in real time, without labels.)

Assay [2] concerns the target T1, VEGF-121-His (inhouse production). Nature of the assay: inhibition ELISA: antibody titrated against 0.7 nM VEGF-121-His; blocked partner plate-bound biotinylated VEGF-R2; anti-His POD readout. In general terms: In an ELISA, binding on a coated surface is turned into a signal by an enzyme label.
The target is the same in assay [3]. Nature of the assay: SPR (Biacore), hVEGF-A121 captured by anti-His antibody, Fab injected, 37° C. How it is done: as §1, §2
Assay [4] shares this target. Nature of the assay: inhibition ELISA: antibody titrated against 0.7 nM VEGF-121-His; blocked partner plate-bound biotinylated VEGF-R1; anti-His POD readout.
Assay [5] has the same target. Nature of the assay: SPR (Biacore), hVEGF-A121 captured by anti-His antibody, Fab injected, 25° C. The method, then:
as §1
(§3) The affinity of the antibodies was determined by SPR using the same methods as described in Example 2. All Fab fragments as listed in table 1 and table 2 were tested.
The source holds these as a separate data set.

The target is the same in assay [6]. Description: Biacore, Fab stressed 2 w/40° C./pH 6.0. How it is done:
(§4) Antibody samples were formulated in 20 mM His/HisCl, 140 mM NaCl, pH 6.0, and were split into three aliquots: one aliquot was re-buffered into PBS, respectively, and two aliquots were kept in the original formulation. The PBS aliquot and one His/HisCl aliquot were incubated for 2 weeks (2 w) at 40° C. (His/NaCl) or 37° C. (PBS) in 1 mg/ml, the PBS sample was incubated further for total 4 weeks (4 w). The third control aliquot sample was stored at −80° C.

Assay [7] shares this target. Description: direct ELISA on plate-coated VEGF-121-His. The method, then:
After washing 3 times with 90 μl/well PBST-buffer (bidest water, 10×PBS Roche #11666789001+0.1% Tween® 20) blocking buffer (bidest water, 10×PBS Roche #11666789001+2% Bovine Serum Albumin Fraction V, fatty acid free, Roche, #10735078001+0.05% Tween® 20) was added 90 μl/well and incubated for 1 h at room temperature. […] After incubation for 1 h at room temperature, plates were again washed 3 times with 90 μl/well PBST-buffer. […] After washing 3 times with 90 μl A PBST-buffer, 25 μl TMB (Roche, #11 835 033 001) was added to each well. After 3 min incubation at RT, signals were detected at 370 nm/492 nm on a Tecan Safire 2 Reader.

In the next assay the target is T2, human VEGF-A121 (human, UniProt P15692 207-395).
T2 sequence: T1 sequence
Description: cell-based or functional assay.

The target of assay [8] is T1, VEGF-121-His (inhouse production). Description: inhibition ELISA: antibody titrated against 0.4 nM VEGF-121-His; blocked partner plate-bound biotinylated VEGF-R2; anti-His POD readout.
Assay [9] shares this target. Description: inhibition ELISA: antibody titrated against 0.7 nM VEGF-121-His; blocked partner plate-bound biotinylated VEGF-R2; anti-His POD readout. The method, then:
(§5) Plates were incubated for 1 h at room temperature. […] Plates were incubated for 1 h at room temperature. […] After washing 3 times with 90 μl/well PB ST-buffer, 25 μl/well detection antibody (anti His POD, Bethyl, #A190-114P, 1:12000) in 1×OSEP was added. After incubation for 1 h at room temperature plates were washed 3 times with 90 μl PBST-buffer. 25 μl TMB (Roche, #11 835 033 001) was added to all wells simultaneously. After 10 min incubation at room temperature, signals were detected at 370 nm/492 nm on a Tecan Safire 2 Reader.
The source holds these as a separate data set.

For assay [10] the target is unchanged. Description: Biacore, Fab stressed 2 w/37° C./pH 7.4. The method, then:
as §4

For assay [11] the target is unchanged. Description: Biacore, Fab stressed 4 w/37° C./pH 7.4. The method, then:
as §4

For assay [12] the target is unchanged. Description: inhibition ELISA: antibody titrated against 0.7 nM VEGF-121-His; blocked partner plate-bound biotinylated VEGF-R2; anti-His POD readout. How it is done: as §5
The source holds these as a separate data set.

Assay [13] has the same target. Description: SPR (Biacore), hVEGF-A121 captured by anti-His antibody, Fab injected, 37° C. How it is done:
as §1, §3
This is another data set of the same source.

B1: HF2-5 Fab fragment (Fab, V domains shown)
VH: EVQLVESGGGLVQPGGSLRLSCAASGFMIRSHGMQWVRQAPGKGLEYVAGISSDGSWARHSAAVEGRFTISRDDSKNTAYLQMNSLRAEDTAVYYCARDFSTGYGADSIDAWGQGTLVTVSS
VL: DIQMTQSPSSLSASVGDRVTITCSGGSDSAYGYGWYQQKPGKAPKTLIYWDDKRPSGVPSRFSGSRSGTDFTLTISSLQPEDFATYYCGAWEYSGGVGIFGQGTKVEIKR
notes: Prior art antibody disclosed in EP3006465
Broadly, the Kd is the equilibrium constant for the complex coming apart. A higher Kd goes with a looser complex. As for B1, the dissociation constant Kd turned out to be 0.052 nM in assay [1] and 0.109 nM in assay [3]. Moreover, the results for the “IC50 (read off the curve)” value in assay [2] and in assay [4] were around 0.7 nM and around 0.9 nM, respectively.

B2: VEGF-0089 Fab fragment (Fab, V domains shown)
VH: EVQLVESGGGLVQPGGSLRLSCAASGFTFTNYAMTWVRQAPGKGLEWVSSIGNGGGIYTYYADSVKGRFTISRDNSKNTLYLQMNSLRAEDTAVYYCAKGDNLFDSWGPGTLVTVSS
VL: DIQMTQSPASLSASVGDRVTITCRASQSIYSSLNWYQQKPGKAPKLLIYASTLQSGVPSRFSGSASGTDFTLTISSLQPEDVATYYCQQYQNFPRTFGQGTKLEIKR
notes: also called antibody VEGF-0089
The EC50 (read off the curve) is the concentration needed to bring the measured effect to its halfway point. For the molecule B2, the Kd was found to be 0.134 nM in assay [5], 0.143 nM in assay [1], 0.11 nM in assay [3] and 0.099 nM in assay [13]. Also, the “VEGF-binding activity after stress (relative active concentration, normalized to unstressed aliquot)” value is 101 in [6], 102 in assay [10] and 101 in assay [11]. Further, in [7], the “EC50 (read off the curve)” value was around 0.2 nM. The “IC50 in reporter gene assay (HEK293-NFAT-RE-Luc2P/KDR cells, luminescence, 25 ng/ml VEGF-A121)” value with human VEGF-A121 was found to be 0.59 nM. For the same molecule, the “IC50 (read off the curve)” value in assay [8] was around 0.2 nM; in assay [9] it was 1 to 2 nM; in assay [12], around 10 ng/mL.

These data come from US20210079080A1 (Hoffmann-La Roche, published 2021).
